Source: publication PMC3893156
Changes are numbered by the printed parent chain. Names may count otherwise.

How the values were obtained:
[1] = substrate: O=P(O)(O)O[C@H]1O[C@H](CO)[C@@H](O)[C@H](O)[C@H]1O; test: Michaelis-Menten kinetics of purified enzyme; format: biochemical, Homo sapiens; settings: Mg2+; Glc-1,6-P2 activator
[2] = substrate: O=P(O)(O)O[C@H]1O[C@H](CO)[C@@H](O)[C@H](O)[C@@H]1O; test: Michaelis-Menten kinetics of purified enzyme; format: biochemical, Homo sapiens; settings: Mg2+; Man-1,6-P2 activator

B1: Phosphomannomutase 2 (wt-PMM2) (Homo sapiens) (protein)
chain: MAAPGPALCLFDVDGTLTAPRQKITKEMDDFLQKLRQKIKIGVVGGSDFEKVQEQLGNDVVEKYDYVFPENGLVAYKDGKLLCRQNIQSHLGEALIQDLINYCLSYIAKIKLPKKRGTFIEFRNGMLNVSPIGRSCSQEERIEFYELDKKENIRQKFVADLRKEFAGKGLTFSIGGQISFDVFPDGWDKRYCLRHVENDGYKTIYFFGDKTMPGGNDHEIFTDPRTMGYSVTAPEDTRRICELLFS
[1]
  Km: 8.2 ± 1.4 µM
[2]
  Km: 16.0 ± 1.5 µM

B2: Phosphomannomutase 2 (F119L-PMM2) (Homo sapiens; F119L) (protein)
chain: B1 chain with F119L
[1]
  Km: 15.5 ± 1.6 µM
[2]
  Km: 11.8 ± 1.0 µM
